In patent EP1398371A1 one finds inhibition of infection by HCVpp of genotypes 1a and 1b after pre-incubation of the target cells with antibody (30 µg/ml) and inhibition of infectivity of HCVpp on Huh-7 cells (hCD81-LEL data, which are given here for two substances.

One assay concerns the target human CD81 (human) (UniProt P60033). As to the kind of experiment: cell-based or functional assay.
In assay [1] the target is HCV E2 glycoprotein of genotype 1a (Hepatitis C virus genotype 1a) (UniProt P27958). Nature of the assay: cell-based or functional assay.

“JS-81 anti-CD81 monoclonal antibody (Pharmingen)” gave an inhibition of infection by HCVpp of genotypes 1a and 1b after pre-incubation of the target cells with antibody (30 µg/ml) with human CD81 (human) of more than 90%.

“recombinant GST-fusion polypeptide encompassing the large extra-cellular loop (LEL) of human CD81 (from UniProt P60033 113-201)” had an inhibition of infectivity of HCVpp on Huh-7 cells (hCD81-LEL at 4, 8, 16 µg/ml pre-incubated with the particles) in assay [1] of 38 to 54%.
